{
  "source": "paper PMC10842050",
  "about": "(Journal of molecular biology, 2023)",
  "binders": {"B1": {"name": "P22 portal protein gp1, P26744 1-725 (natural protein)", "chain": "MADNENRLESILSRFDADWTASDEARREAKNDLFFSRVSQWDDWLSQYTTLQYRGQFDVVRPVVRKLVSEMRQNPIDVLYRPKDGARPDAADVLMGMYRTDMRHNTAKIAVNIAVREQIEAGVGAWRLVTDYEDQSPTSNNQVIRREPIHSACSHVIWDSNSKLMDKSDARHCTVIHSMSQNGWEDFAEKYDLDADDIPSFQNPNDWVFPWLTQDTIQIAEFYEVVEKKETAFIYQDPVTGEPVSYFKRDIKDVIDDLADSGFIKIAERQIKRRRVYKSIITCTAVLKDKQLIAGEHIPIVPVFGEWGFVEDKEVYEGVVRLTKDGQRLRNMIMSFNADIVARTPKKKPFFWPEQIAGFEHMYDGNDDYPYYLLNRTDENSGDLPTQPLAYYENPEVPQANAYMLEAATSAVKEVATLGVDTEAVNGGQVAFDTVNQLNMRADLETYVFQDNLATAMRRDGEIYQSIVNDIYDVPRNVTITLEDGSEKDVQLMAEVVDLATGEKQVLNDIRGRYECYTDVGPSFQSMKQQNRAEILELLGKTPQGTPEYQLLLLQYFTLLDGKGVEMMRDYANKQLIQMGVKKPETPEEQQWLVEAQQAKQGQQDPAMVQAQGVLLQGQAELAKAQNQTLSLQIDAAKVEAQNQLNAARIAEIFNNMDLSKQSEFREFLKTVASFQQDRSEDARANAELLLKGDEQTHKQRMDIANILQSQRQNQPSGSVAETPQ"}, "B2": {"name": "P22 tail needle gp26 (natural protein, bacteriophage P22)", "chain": "MADPSLNNPVVIQATRLDASILPRNVFSKSYLLYVIAQGTDVGAIAGKANEAGQGAYDAQVKNDEQDVELADHEARIKQLRIDVDDHESRITANTKAITALNVRVTTAEGEIASLQTNVSALDGRVTTAENNISALQADYVSKTATTSQSLASPLNVTTSYSVGGKKVLGARQTGWTAATGTANKGVFDADLTFAVSDTYTQSEIQAIANALITERRRTKALEDALRAHGLID"}, "B3": {"name": "P22 head-to-tail adapter gp4 (natural protein, bacteriophage P22)", "chain": "MQIKTKGDLVRAALRKLGVASDATLTDVEPQSMQDAVDDLEAMMAEWYQDGKGIITGYVFSDDENPPAEGDDHGLRSSAVSAVFHNLACRIAPDYALEATAKIIATAKYGKELLYKQTAISRAKRAPYPSRMPTGSGNSFANLNEWHYFPGEQNADSTTPHDEGNG"}},
  "key": {"[1]": {"molecular_target": "T1, P22 portal protein gp1 (bacteriophage P22), P26744", "T1 chain": "B1 chain", "experiment": "cryo-EM structure", "settings": "remark: other sources report otherwise"}, "[2]": {"molecular_target": "the molecule itself", "experiment": "cryo-EM structure"}},
  "data": [
    {"binder": "B1", "values": [
      {"measurement": "stoichiometry N", "setting": "[1]", "value": 12}
    ]},
    {"binder": "B2", "values": [
      {"measurement": "stoichiometry N", "setting": "[2]", "value": 3}
    ]},
    {"binder": "B3", "values": [
      {"measurement": "stoichiometry N", "setting": "[2]", "value": 12}
    ]}
  ]
}
